Measured values published in patent publication US20200362046A1 (published 2020).
Substitutions are numbered along the chain they refer to. Each block holds one binder with its values, some of them ahead of it.

Legend:
[1] = target: KIR-Fc (purified recombinant "target"-Fc protein); assay: phage ELISA on purified target-Fc; signal over non-specific control (e.g., IgG1-Fc); average where several clones share the sequence
[2] = target: T1, PD-L1-Fc (purified recombinant "target"-Fc protein) (UniProt Q9NZQ7 19-238); assay: phage ELISA on purified target-Fc; signal over non-specific control (e.g., IgG1-Fc)
T1 construct: also called B7-H1; not shown: Fc part of the fusion
Protocol: Selections were also performed using F1, F2, F3. C1 & C2 trinucleotide phosphoramidite libraries. In most cases, libraries were pooled prior to use in selection. By combining equal volumes of the individual libraries. Pool F (libraries F1, F2 and F3) and Pool C (libraries C1 and C2) were generated. These libraries were used in selections for DBDpp binders to 4-1BB/CD137 as well as a larger panel of purified recombinant “target”-Fc proteins, including CD47, CTLA4. DR5, KIR. LAG3, OX40, PD1, PD-L1 and TIM3. (Many of these targets are considered immuno-regulatory factors (Pardoll et al., Nat. Rev. Cancer 12:252-264 (2012)). After incubation of the target with the pools of DBDpp phage libraries, bound phage-target complexes were captured and separated from unbound phage with protein A beads (target proteins were Fc fusions). Alter three rounds of selection, rescued phage clones were screened by ELISA for binding to the selected target.
For each target, approximately 90 DBDpp phage clones were screened by ELISA for binding to the target protein and as well as a non-specific control (e.g., IgG1-Fc). […] In some instances, for the ELISA screening plate in which the majority of DBDpp clones were positive, the entire plate was sequenced.

[3] = target: KIR-Fc (purified recombinant "target"-Fc protein); assay: as above

T1 sequence (Q9NZQ7 19-238 limits assumed): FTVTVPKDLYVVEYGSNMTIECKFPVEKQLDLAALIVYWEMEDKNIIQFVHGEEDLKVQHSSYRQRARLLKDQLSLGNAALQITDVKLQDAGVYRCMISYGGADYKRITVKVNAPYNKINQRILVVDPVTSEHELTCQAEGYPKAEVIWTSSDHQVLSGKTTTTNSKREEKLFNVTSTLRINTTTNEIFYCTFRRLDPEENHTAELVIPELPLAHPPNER

B1: SEQ ID NO 35 (designed binder)
chain: MGSWSEFYNRLDAIESRLLALGGSEAELALFEIQIARFEKVLQAYKGKGNPEVEALRGEARAIFAELYAYRHN
ELISA ratio [1]: 8.4

B2: SEQ ID NO 36 (designed binder)
chain: MGSWYEFYNRLYAIEIRLYALGGSEAELAAFEKEIAAFESELQAYKGKGNPEVERLRVRAAKIRVILQAYRHN
ELISA ratio [1]: 4.24

B5: SEQ ID NO 37 (designed binder)
chain: MGSWLWFKIFLAEIKYFLEALGGSEAELAAFDFEIHAFHVELFAYKGKGNPEVEVLREVAAEIRWDLQAYRHN
ELISA ratio [3]: 4.17

Further lines, results first:

ELISA ratio [2]: 17.3 ratio
B3: SEQ ID NO 60 (designed binder)
chain: MGSWYEFTVRLEAIHERLKALGGSEAELAAFEKEIAAFESELQAYKGKGNPEVEILRDDAAFIRRFLQAYRHN
notes: also called DBDpp; library F3

ELISA ratio [2]: 12.2 ratio
B4: SEQ ID NO 61 (designed binder)
chain: B3 chain with T8D, V9D, E12N, E16D, K19Q, I55D
notes: also called DBDpp; library F3
